Values belong to the substance of their own block, whether it stands above or below them.
Experiments:
[1] = target: N-terminal NanoLuc-tagged VEGFR2 (wild type) (UniProt P35968); experiment: FRET or BRET; NanoBRET time course, intact HEK293T cells transiently transfected with wild-type or tyrosine phosphorylation-deficient NanoLuc-VEGFR2; 3 or 20 nM VEGF121a-TMR; every 30 s at 37°C
[2] = target: tyrosine phosphorylation-deficient NanoLuc-VEGFR2 (UniProt P35968); experiment: as above
[3] = target: N-terminal NanoLuc-tagged VEGFR2 (wild type) (UniProt P35968); experiment: FRET or BRET; NanoBRET kinetics, membranes from NanoLuc-VEGFR2 HEK293T cells (10 μg per well); five concentrations of fluorescent ligand (1–20 nM); every 30 s for 90 min at 37°C; KD kinetic (koff/kon)
[4] = target: tyrosine phosphorylation-deficient NanoLuc-VEGFR2 (UniProt P35968); experiment: FRET or BRET; NanoBRET kinetics, membranes from a stable cell line expressing tyrosine phosphorylation-deficient NanoLuc-VEGFR2; four concentrations of VEGF121a-TMR (3–20 nM), 90 min at 37°C; KD kinetic (koff/kon)
[5] = target: N-terminal NanoLuc-tagged VEGFR2 (wild type) (UniProt P35968); experiment: FRET or BRET; NanoBRET saturation binding, membranes from NanoLuc-VEGFR2 HEK293T cells (5 μg per well); increasing fluorescent ligand with or without 100 nM corresponding unlabelled ligand; 60 min, 37°C; HeBSS/0.1% BSA pH 7.4
[6] = target: NanoLuc-VEGFR2 (Homo sapiens) (UniProt P35968); experiment: NanoBRET kinetics, intact cells; settings: cited from earlier work
[7] = target: N-terminal NanoLuc-tagged VEGFR2 (wild type) (UniProt P35968); experiment: FRET or BRET; NanoBRET kinetics, membranes from NanoLuc-VEGFR2 HEK293T cells (10 μg per well); five concentrations of fluorescent ligand (1–20 nM); every 30 s for 90 min at 37°C; KD kinetic (koff/kon); remark: listed apart in the source
[8] = target: N-terminal NanoLuc-tagged VEGFR2 (wild type) (UniProt P35968); experiment: FRET or BRET; NanoBRET saturation binding, wild-type NanoLuc-VEGFR2 membranes (5 μg per well), HeBSS/0.1% BSA pH 6.0 (5.8–6.2); with or without 100 nM VEGF165b; 60 min, 37°C
[9] = target: N-terminal NanoLuc-tagged VEGFR2 (wild type) (UniProt P35968); experiment: FRET or BRET; NanoBRET saturation binding, wild-type NanoLuc-VEGFR2 membranes (5 μg per well), HeBSS/0.1% BSA pH 7.4 (matched with pH 6.0); with or without 100 nM VEGF165b; 60 min, 37°C
[10] = target: N-terminal NanoLuc-tagged VEGFR2 (wild type) (UniProt P35968); experiment: FRET or BRET; NanoBRET kinetics, NanoLuc-VEGFR2 membranes preincubated with 0.01% DMSO (30 min, 37°C); four concentrations of VEGF165b-TMR (3–20 nM), 90 min at 37°C; KD kinetic (koff/kon)
[11] = target: N-terminal NanoLuc-tagged VEGFR2 (wild type) (UniProt P35968); experiment: FRET or BRET; NanoBRET kinetics, NanoLuc-VEGFR2 membranes preincubated with 1 μM cediranib (30 min, 37°C); four concentrations of VEGF165b-TMR (3–20 nM), 90 min at 37°C; KD kinetic (koff/kon)
[12] = target: N-terminal NanoLuc-tagged VEGFR2 (wild type) (UniProt P35968); experiment: FRET or BRET; NanoBRET kinetics, wild-type NanoLuc-VEGFR2 membranes (10 μg per well), HeBSS/0.1% BSA pH 6.0 (5.8–6.2); four concentrations of VEGF165b-TMR (3–20 nM), 37°C; KD kinetic (koff/kon)
[13] = target: N-terminal NanoLuc-tagged VEGFR2 (wild type) (UniProt P35968); experiment: FRET or BRET; NanoBRET kinetics, wild-type NanoLuc-VEGFR2 membranes (10 μg per well), HeBSS/0.1% BSA pH 7.4 (matched with pH 6.0); four concentrations of VEGF165b-TMR (3–20 nM), 37°C; KD kinetic (koff/kon)
[14] = target: N-terminal NanoLuc-tagged VEGFR2 (wild type) (UniProt P35968); experiment: FRET or BRET; NanoBRET kinetics, intact HEK293T cells stably expressing NanoLuc-VEGFR2, pretreated with 0.01% DMSO (30 min, 37°C); four concentrations of VEGF165b-TMR (3–20 nM), every 30 s for 90 min at 37°C; constants from a global association fit to the initial 20 min; KD kinetic (koff/kon)
[15] = target: N-terminal NanoLuc-tagged VEGFR2 (wild type) (UniProt P35968); experiment: FRET or BRET; NanoBRET kinetics, intact HEK293T cells stably expressing NanoLuc-VEGFR2, pretreated with 1 μM cediranib (30 min, 37°C); four concentrations of VEGF165b-TMR (3–20 nM), every 30 s for 90 min at 37°C; constants from a global association fit to the initial 20 min; KD kinetic (koff/kon)
[16] = target: N-terminal NanoLuc-tagged VEGFR2 (wild type) (UniProt P35968); experiment: FRET or BRET; NanoBRET displacement, membranes from NanoLuc-VEGFR2 HEK293T cells (5 μg per well); five fixed concentrations of fluorescent ligand with increasing VEGF-Ax (0.03–30 nM); 60 min, 37°C; Ki by Cheng–Prusoff

Chain of VEGF-Ax (P15692 whole entry): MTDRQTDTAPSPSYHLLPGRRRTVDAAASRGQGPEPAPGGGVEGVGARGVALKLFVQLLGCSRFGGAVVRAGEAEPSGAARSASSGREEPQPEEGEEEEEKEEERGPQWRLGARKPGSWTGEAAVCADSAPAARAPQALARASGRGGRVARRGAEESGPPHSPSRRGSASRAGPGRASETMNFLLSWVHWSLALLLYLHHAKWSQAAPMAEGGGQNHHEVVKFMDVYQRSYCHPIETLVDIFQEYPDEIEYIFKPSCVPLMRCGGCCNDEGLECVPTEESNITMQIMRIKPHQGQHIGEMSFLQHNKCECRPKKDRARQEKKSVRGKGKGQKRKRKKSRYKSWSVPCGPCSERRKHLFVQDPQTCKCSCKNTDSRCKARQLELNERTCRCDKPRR
Chain of VEGF165a-TMR (P15692 whole entry): as above

AUC of the NanoBRET time course at 3 nM [1]: 2.61 | AUC of the NanoBRET time course at 20 nM [1]: 7.28 | AUC of the NanoBRET time course at 3 nM [2]: 3.54 | AUC of the NanoBRET time course at 20 nM [2]: 9.79 | Kd [3]: 3.85 nM | koff [3]: 0.000317 s⁻¹ | kon [3]: 85500 M⁻¹ s⁻¹ | residence time [3]: 52.6 min | Kd [4]: 6.85 nM | koff [4]: 0.000617 s⁻¹ | kon [4]: 104000 M⁻¹ s⁻¹ | residence time [4]: 27 min | Kd [5]: 2.58 nM
Substance: VEGF121a-TMR (from UniProt P15692-9 1-147) (ligand)

Substance: VEGF165a-TMR (from UniProt P15692)
Kd [6]: 6.64 nM

Kd [3]: 2.21 nM | Kd [7]: 2.4 nM | Kd [5]: 0.31 nM
Substance: VEGF165a-TMR (from UniProt P15692-4 1-191) (ligand)

Kd [8]: 4.43 nM | Kd [9]: 5.29 nM | Kd [10]: 9.68 nM | koff [10]: 0.000383 s⁻¹ | kon [10]: 44800 M⁻¹ s⁻¹ | residence time [10]: 43.5 min | Kd [11]: 8 nM | koff [11]: 0.00035 s⁻¹ | kon [11]: 45700 M⁻¹ s⁻¹ | residence time [11]: 47.6 min | Kd [12]: 13.3 nM | koff [12]: 0.000983 s⁻¹ | kon [12]: 73200 M⁻¹ s⁻¹ | residence time [12]: 17 min | Kd [3]: 9.21 nM | koff [3]: 0.000483 s⁻¹ | kon [3]: 61500 M⁻¹ s⁻¹ | residence time [3]: 34.5 min | Kd [13]: 10.2 nM | koff [13]: 0.000383 s⁻¹ | kon [13]: 39000 M⁻¹ s⁻¹ | residence time [13]: 43.5 min | Kd [5]: 5.55 nM | AUC of the NanoBRET time course at 5 nM [14]: 0.71 | AUC of the NanoBRET time course at 20 nM [14]: 1.8 | Kd [14]: 19.8 nM | koff [14]: 0.00135 s⁻¹ | kon [14]: 71000 M⁻¹ s⁻¹ | residence time [14]: 12.3 min | AUC of the NanoBRET time course at 5 nM [15]: 0.77 | AUC of the NanoBRET time course at 20 nM [15]: 2.04 | Kd [15]: 43.6 nM | koff [15]: 0.00152 s⁻¹ | kon [15]: 43800 M⁻¹ s⁻¹ | residence time [15]: 11 min
Substance: VEGF165b-TMR (from UniProt P15692-8 1-191) (ligand)

pKi (fluorescent probe VEGF121a-TMR) [16]: 10.3 | pKi (fluorescent probe VEGF165a-TMR) [16]: 10.2 | pKi (fluorescent probe VEGF165b-TMR) [16]: 9.96
Substance: VEGF-Ax (ligand)

Source: publication PMC6692582
